In PMC314469, “Protein Interaction Networks by Proteome Peptide Scanning” (PLoS Biology, 2004) one finds normalised SPOT signal, Boehringer light units (BLU); mean over the file's lines of this peptide data, which are given here for seven molecules.

One experiment addresses T1, Boi1 SH3 (BOI1_YEAST), P38041.
T1 chain: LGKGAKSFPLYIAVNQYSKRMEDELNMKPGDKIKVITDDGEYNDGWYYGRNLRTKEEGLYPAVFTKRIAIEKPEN
As to the kind of experiment: SPOT array.
Consider ALLIKTVPGFPLLE [YGR061C 138-151], for which the normalised SPOT signal, Boehringer light units (BLU); mean over the file's lines of this peptide was 78.5.

For the molecule AISKKLGPDTPIKV [YOR219C 612-625], the normalised SPOT signal, Boehringer light units (BLU); mean over the file's lines of this peptide was 466.

Turning to AKSNKVSPEDPAVQ [YLR081W 283-296], the normalised SPOT signal, Boehringer light units (BLU); mean over the file's lines of this peptide amounted to 571.

On to AKIDKVSPEDPWVL [YJR158W 273-286], for which the normalised SPOT signal, Boehringer light units (BLU); mean over the file's lines of this peptide was found to be 54.6.

The molecule AKLHRTKPVKPLSK [YLR430W 1004-1017] gave a normalised SPOT signal, Boehringer light units (BLU); mean over the file's lines of this peptide of 382.

AKDYRFNPAIPLRI [YLR073C 11-24] came in with a normalised SPOT signal, Boehringer light units (BLU); mean over the file's lines of this peptide of 1420.

On to AGQERFAPLAPMYY [YNL093W 69-82], for which the normalised SPOT signal, Boehringer light units (BLU); mean over the file's lines of this peptide came to 33.8.

The next experiment has as its target T2, Boi2 SH3 (BOI2_YEAST), P39969.
T2 chain: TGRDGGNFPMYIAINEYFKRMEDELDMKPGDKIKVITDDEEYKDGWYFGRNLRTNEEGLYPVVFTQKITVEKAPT
As to the kind of experiment: SPOT array.
Turning to ALLIKTVPGFPLLE [YGR061C 138-151], the normalised SPOT signal, Boehringer light units (BLU); mean over the file's lines of this peptide came to 48.

In turn, AISKKLGPDTPIKV [YOR219C 612-625] gave a normalised SPOT signal, Boehringer light units (BLU); mean over the file's lines of this peptide of 3.3.

AKSNKVSPEDPAVQ [YLR081W 283-296] yielded a normalised SPOT signal, Boehringer light units (BLU); mean over the file's lines of this peptide of 24.3.

AKIDKVSPEDPWVL [YJR158W 273-286]: the normalised SPOT signal, Boehringer light units (BLU); mean over the file's lines of this peptide came to 15.6.

Turning to AKLHRTKPVKPLSK [YLR430W 1004-1017], the normalised SPOT signal, Boehringer light units (BLU); mean over the file's lines of this peptide is 4.6.

In the case of AKDYRFNPAIPLRI [YLR073C 11-24], the normalised SPOT signal, Boehringer light units (BLU); mean over the file's lines of this peptide is 30.5.

AGQERFAPLAPMYY [YNL093W 69-82] yielded a normalised SPOT signal, Boehringer light units (BLU); mean over the file's lines of this peptide of 30.4.

The next experiment concerns the target T3, Myo5 SH3 (MYO5_YEAST), Q04439.
T3 chain: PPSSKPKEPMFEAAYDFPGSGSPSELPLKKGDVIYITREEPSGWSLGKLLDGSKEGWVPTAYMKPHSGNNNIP
Kind of experiment: SPOT array.
As to ALLIKTVPGFPLLE [YGR061C 138-151], the normalised SPOT signal, Boehringer light units (BLU); mean over the file's lines of this peptide is 144.

Turning to AISKKLGPDTPIKV [YOR219C 612-625], the normalised SPOT signal, Boehringer light units (BLU); mean over the file's lines of this peptide stood at 176.

The molecule AKSNKVSPEDPAVQ [YLR081W 283-296] gave a normalised SPOT signal, Boehringer light units (BLU); mean over the file's lines of this peptide of 371.

As to AKIDKVSPEDPWVL [YJR158W 273-286], the normalised SPOT signal, Boehringer light units (BLU); mean over the file's lines of this peptide amounted to 248.

The molecule AKLHRTKPVKPLSK [YLR430W 1004-1017] gave a normalised SPOT signal, Boehringer light units (BLU); mean over the file's lines of this peptide of 502.

On to AKDYRFNPAIPLRI [YLR073C 11-24], for which the normalised SPOT signal, Boehringer light units (BLU); mean over the file's lines of this peptide is 304.

The molecule AGQERFAPLAPMYY [YNL093W 69-82] gave a normalised SPOT signal, Boehringer light units (BLU); mean over the file's lines of this peptide of 101.

The next experiment addresses T4, Rvs167 SH3 (RV167_YEAST), P39743.
T4 chain: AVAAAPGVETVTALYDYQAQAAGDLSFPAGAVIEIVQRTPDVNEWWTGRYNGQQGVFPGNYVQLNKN
Kind of experiment: SPOT array.
ALLIKTVPGFPLLE [YGR061C 138-151]: the normalised SPOT signal, Boehringer light units (BLU); mean over the file's lines of this peptide was determined as 11.8.

Consider AISKKLGPDTPIKV [YOR219C 612-625], for which the normalised SPOT signal, Boehringer light units (BLU); mean over the file's lines of this peptide worked out at 14.9.

Molecule AKSNKVSPEDPAVQ [YLR081W 283-296] gave a normalised SPOT signal, Boehringer light units (BLU); mean over the file's lines of this peptide of 159.

AKIDKVSPEDPWVL [YJR158W 273-286]: the normalised SPOT signal, Boehringer light units (BLU); mean over the file's lines of this peptide was 16.

Turning to AKLHRTKPVKPLSK [YLR430W 1004-1017], the normalised SPOT signal, Boehringer light units (BLU); mean over the file's lines of this peptide turned out to be 34.5.

AKDYRFNPAIPLRI [YLR073C 11-24] yielded a normalised SPOT signal, Boehringer light units (BLU); mean over the file's lines of this peptide of 534.

AGQERFAPLAPMYY [YNL093W 69-82] displayed a normalised SPOT signal, Boehringer light units (BLU); mean over the file's lines of this peptide of 102.

The target of another experiment is Sho1 SH3 (SHO1_YEAST), P40073. As to the kind of experiment: SPOT array.
Sequence of Sho1 SH3 (SHO1_YEAST), P40073 (P40073 295-366): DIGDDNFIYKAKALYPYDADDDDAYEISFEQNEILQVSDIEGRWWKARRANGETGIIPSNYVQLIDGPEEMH
Molecule ALLIKTVPGFPLLE [YGR061C 138-151] came in with a normalised SPOT signal, Boehringer light units (BLU); mean over the file's lines of this peptide of 22.1.

Regarding AISKKLGPDTPIKV [YOR219C 612-625], the normalised SPOT signal, Boehringer light units (BLU); mean over the file's lines of this peptide was 18.4.

AKSNKVSPEDPAVQ [YLR081W 283-296] showed a normalised SPOT signal, Boehringer light units (BLU); mean over the file's lines of this peptide of 44.1.

Molecule AKIDKVSPEDPWVL [YJR158W 273-286] had a normalised SPOT signal, Boehringer light units (BLU); mean over the file's lines of this peptide of 25.7.

AKLHRTKPVKPLSK [YLR430W 1004-1017]: the normalised SPOT signal, Boehringer light units (BLU); mean over the file's lines of this peptide was 109.

Consider AKDYRFNPAIPLRI [YLR073C 11-24], for which the normalised SPOT signal, Boehringer light units (BLU); mean over the file's lines of this peptide came to 208.

For AGQERFAPLAPMYY [YNL093W 69-82], the normalised SPOT signal, Boehringer light units (BLU); mean over the file's lines of this peptide stood at 23.3.

A further experiment deals with T5, Yfr024 SH3 (LSB3_YEAST), P43603.
T5 chain: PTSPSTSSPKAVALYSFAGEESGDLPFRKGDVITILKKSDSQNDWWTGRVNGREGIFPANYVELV
Kind of experiment: SPOT array.
With ALLIKTVPGFPLLE [YGR061C 138-151], the normalised SPOT signal, Boehringer light units (BLU); mean over the file's lines of this peptide amounted to 39.7.

In the case of AISKKLGPDTPIKV [YOR219C 612-625], the normalised SPOT signal, Boehringer light units (BLU); mean over the file's lines of this peptide was 48.8.

Take AKSNKVSPEDPAVQ [YLR081W 283-296]: the normalised SPOT signal, Boehringer light units (BLU); mean over the file's lines of this peptide came to 142.

AKIDKVSPEDPWVL [YJR158W 273-286] yielded a normalised SPOT signal, Boehringer light units (BLU); mean over the file's lines of this peptide of 33.6.

As for AKLHRTKPVKPLSK [YLR430W 1004-1017], the normalised SPOT signal, Boehringer light units (BLU); mean over the file's lines of this peptide amounted to 162.

Molecule AKDYRFNPAIPLRI [YLR073C 11-24] had a normalised SPOT signal, Boehringer light units (BLU); mean over the file's lines of this peptide of 1400.

The molecule AGQERFAPLAPMYY [YNL093W 69-82] yielded a normalised SPOT signal, Boehringer light units (BLU); mean over the file's lines of this peptide of 98.8.

In another experiment the target is T6, Yhr016c SH3 (YSC84_YEAST), P32793.
T6 chain: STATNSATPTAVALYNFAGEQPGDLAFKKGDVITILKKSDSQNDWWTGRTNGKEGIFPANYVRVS
Kind of experiment: SPOT array.
In turn, ALLIKTVPGFPLLE [YGR061C 138-151] registered a normalised SPOT signal, Boehringer light units (BLU); mean over the file's lines of this peptide of 7.6.

AISKKLGPDTPIKV [YOR219C 612-625]: the normalised SPOT signal, Boehringer light units (BLU); mean over the file's lines of this peptide was found to be 7.

On to AKSNKVSPEDPAVQ [YLR081W 283-296], for which the normalised SPOT signal, Boehringer light units (BLU); mean over the file's lines of this peptide amounted to 12.5.

For the molecule AKIDKVSPEDPWVL [YJR158W 273-286], the normalised SPOT signal, Boehringer light units (BLU); mean over the file's lines of this peptide stood at 13.1.

The molecule AKLHRTKPVKPLSK [YLR430W 1004-1017] came in with a normalised SPOT signal, Boehringer light units (BLU); mean over the file's lines of this peptide of 42.3.

AKDYRFNPAIPLRI [YLR073C 11-24] registered a normalised SPOT signal, Boehringer light units (BLU); mean over the file's lines of this peptide of 559.

In turn, AGQERFAPLAPMYY [YNL093W 69-82] came in with a normalised SPOT signal, Boehringer light units (BLU); mean over the file's lines of this peptide of 15.9.
